The target of this data set is DOT1L (1-416), recombinant (Homo sapiens) (UniProt Q8TEK3). Briefly: EMSA. Conditions: EMSA: 10 mM HEPES pH 7.3, 20 mM KCl, 1 mM MgCl2, 1 mM DTT, 5% glycerol, 100 ug/mL tRNA, room temperature 30 min; pull-down: Pierce Magnetic RNA-Protein ….

Here are results for one sequence from article PMC7302350.

Sequence of UniProt Q8TEK3 (Q8TEK3 1-416): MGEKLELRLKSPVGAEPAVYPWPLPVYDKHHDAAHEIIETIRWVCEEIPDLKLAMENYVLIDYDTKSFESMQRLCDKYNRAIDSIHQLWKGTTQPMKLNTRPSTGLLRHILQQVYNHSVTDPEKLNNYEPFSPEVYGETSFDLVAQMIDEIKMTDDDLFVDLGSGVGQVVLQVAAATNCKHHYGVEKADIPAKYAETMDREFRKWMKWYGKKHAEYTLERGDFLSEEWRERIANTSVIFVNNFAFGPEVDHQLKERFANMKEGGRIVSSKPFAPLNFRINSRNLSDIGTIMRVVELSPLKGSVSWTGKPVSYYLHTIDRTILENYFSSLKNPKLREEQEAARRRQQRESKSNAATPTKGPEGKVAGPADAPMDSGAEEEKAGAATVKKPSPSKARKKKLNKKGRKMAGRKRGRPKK

As for “GGGACAUUCGAGCAGCUGCUCUGGAGAAACAGCAGGAUCUACGGAAGUUUGUACCCACCGCCUCGCCUGCAGCCUCGGGAGUCUCAACCCAAGCCGGCCCGGCCUUGUAGCCCAGAGCAGCAAAGCCACAGCAGGCAACGCGAGCUAACGCGGGUCGCGCGGAGGUCGGGAGCCCAGGCGGCGGAGGCGGCGGCGGCGCAGUUAUUCCCGGGUGACUCUGGGGACUCGUGCAGAUGGGGGACGCCUCCGGCCACGCACUUGGAGCCA [LAMP5-AS1 503-764]”, the binding result was “binds”.
